Here are results for 1 molecule from patent publication US20210371505A1 (Regeneron, published 2021).

The target in the experiment is Hemagglutinin of A/Wisconsin/67/2005 (H3N2) overexpressed on 3T3 cells (Influenza A virus A/Wisconsin/67/2005 …). The experiment in a line: cell-based or functional assay.

B1: H1H14611N2 (antibody, V domains shown)
VH: EVQLVESGGGLVKPGGSLRLSCAASGFTFSGFSMNWVRQVPGKGLEWVSSISTSGNYMYYADSVKGRFTISRDNAKKSFSLQMNSLRAEDSAIYYCARGGGYNWNLFDYWGQGSLVTVSS
VL: EIVLTQSPGTLSLSPGERATLSCRASQSLNSNYLAWYQQKPGQAPRLLIYGASSRATGIPDRFSGSGSGTDFTLTITRLESEDFAVYYCQQYGNSPLTFGGGTKVEIK
As for B1, the “EC50, ADCC with human donor PBMCs (CytoTox-Glo)” value stood at 0.146 nM and the “EC50, FcγRIIIA activation in the ADCC-Glo reporter bioassay (Promega)” value stood at 0.871 nM.
